Laboratory results from article PMC6449189.
Where two headings read alike, the source gives them in different places.

Key:
Assay in all cases: EMSA
LbCas12a [1] = target: T1, LbCas12a (Lachnospiraceae bacterium ND2006, UniProt A0A5S8WF58 1-1228)
LbCas12a [2] = target: T1, LbCas12a; remark: listed apart in the source
LbCas12a [3] = target: T1, LbCas12a; remark: listed apart in the source
LbCas12a [4] = target: T1, LbCas12a; remark: listed apart in the source

B1: LbCas12a crRNA (24-nt T1) rGJK_007 (structured_RNA)
RNA: AAUUUCUACUAAGUGUAGAUAAAGUGCUCAUCAUUGGAAAACGU
Kd (LbCas12a [1]): 17.6 ± 2.4 nM
Kd (LbCas12a [2]): 38.9 ± 4.7 nM
Kd (LbCas12a [3]): 16.4 ± 2.1 nM
Kd (LbCas12a [4]): 35.8 ± 4.4 nM
